Measured values as given in US12558435B2, “Transient inhibition of p53 in gene therapy” (Ospedale San Raffaele S.R.L., priority 2018, dated 2026).

B1: E4orf6/7: adenoviral protein from adenovirus serotype 5 E4 gene (SEQ ID No. 2), delivered as mRNA (protein)
chain: MTTSGVPFGMTLRPTRSRLSRRTPYSRDRLPPFETETRATILEDHPLLPECNTLTMHNAWTSPSPPVKQPQVGQQPVAQQLDSDMNLSELPGEFINITDERLARQETVWNITPKNMSVTHDMMLFKASRGERTVYSVCWEGGGRLNTRVL
modifications: delivered as mRNA; example amino acid sequence of Ad5-E4orf6/7
B2: GSE56: p53 dominant negative peptide (SEQ ID No. 9), transiently overexpressed from electroporated mRNA (protein)
chain: MDGWCPGRDRRTEEENFRKKEEHCPELPPGSAKRALPTSTSSSPQQKKKPLDGEYFTLKIRGRERFEMFRELNEALELKDARAAEESGDSRAHSSYPKIVS
modifications: amino acid sequence of GSE56

What was measured:
[1] = test system: CDKN1A; assay: TaqMan assay of CDKN1A gene expression; format: cell-based, human
Description: (§1) For gene expression analyses, total RNA was extracted using the RNeasy Plus Micro Kit (QIAGEN). cDNA was synthetized with SuperScript VILO IV cDNA Synthesis Kit (Invitrogen) and used for Q-PCR in a Viia7 Real-time PCR thermal cycler using TaqMan Gene Expression Assays (Applied Biosystems) mapping to CDKN1A, RPS27L, PHLDA3, APOBEC3H, and HPRT as normalizer. The relative expression of each gene was first normalized to HPRT expression and then represented as fold change relative to the mock-treated sample.

[2] = test system: CDK2; assay: TaqMan assay of CDK2 gene expression; format: cell-based, human; settings: 24 hours post-editing; FIG. 16A-B
[3] = test system: CDKN2A; assay: TaqMan assay of CDKN2A gene expression; format: cell-based, human; settings: 24 hours post-editing; FIG. 16C-D
[4] = test system: human primary T cells; assay: Gene editing of human primary T cells; format: cell-based; settings: 20 days after treatment; bulk CD3+, CD4 and CD8 subpopulations; FIG. 9B
Description: Finally, we tested the delivery of the E4orf6/7 mRNA together with the Cas9 ribonucleoprotein (RNP) into human primary T cells (peripheral blood derived total CD3+ cells) before AAV6 transduction for the delivery of the donor DNA template (FIG. 9A).

[5] = test system: human CD34+ cells; assay: Culture (subpopulation) composition of edited CD34+ cells by flow cytometry; format: cell-based
Protocol: For immunophenotypic analyses (performed on FACSCanto II; BD Pharmingen), we used the antibodies listed below. Single stained and Fluorescence Minus One stained cells were used as controls. LIVE/DEAD Fixable Dead Cell Stain Kit (Thermo Fisher), 7-aminoactinomycin (Sigma Aldrich), were included in the sample preparation for flow cytometry according to the manufacturer's instructions to exclude dead cells from the analysis. Cell sorting was performed using MoFlo XDP Cell Sorter (Beckman Coulter) or FACSAria Fusion (BD Biosciences).

[6] = test system: APOBEC3H; assay: TaqMan assay of APOBEC3H gene expression; format: cell-based, human; settings: 24 hours post-editing; FIG. 16G
Description: as §1

[7] = test system: human CD34+ cells transplanted into NSG mice; assay: Xenotransplantation of edited human CD34+ cells in NSG mice; format: in vivo; settings: limit cells dose T0eq=1×10^5/mouse; FIG. 19A
[8] = test system: human CD34+ cells; assay: Cell growth curve of edited CD34+ cells; format: cell-based
[9] = test system: HDR-edited human cells in NSG mice; assay: Barcoding-based clonal tracking of edited cells in transplanted NSG mice; format: in vivo; settings: AAVS1; FIG. 12E
Description: The barcoded AAV6 donor template targeting the AAVS1 locus was obtained by subcloning the degenerated sequence into the previously reported AAVS1 AAV6 transfer vector plasmid downstream of the polyadenylation sequence. Briefly, a ssODN embedding the random sequence flanked by the unique cloning restriction sites (Bsu36l and Sphl) was obtained from Sigma Aldrich. The degenerated region was designed to avoid any undesired cutting by cloning restriction enzymes. To generate the complementary strand, 50 pmol of the ssODN were amplified with 10 cycles of PCR with Easy-A High-Fidelity enzyme (Agilent Technologies) using the appropriate forward and reverse primers according to the manufacturer's instructions. The amplified product was purified with MinElute PCR Purification kit (QIAGEN), digested with the restriction enzymes and checked by capillary electrophoresis. 2 μg of the Bsu36l/Sphl-digested AAVS1 HDR donor template were ligated with the digested insert (molar ratio 1:7) using T4 DNA Ligase (NEB) by scaling up the manufacturer's protocol. […]
PCR amplicons for each individual sample were generated by one-step PCR using Taq G2 Hot Start Polymerase (Promega). […] PCR library amplicons were separately purified using MinElute PCR Purification kit (QIAGEN) and quality was assessed by Agilent Tapestation (Agilent Technologies). […]

[10] = test system: p53-target genes (CDKN1A, PHLDA3, RPS27L, APOBEC3H); assay: TaqMan expression of p53-target genes in edited CD34+ cells; format: cell-based, human; settings: 24 hrs after electroporation; FIG. 3B
Description: as §1

Molecule | CDKN1A expression compared to the standard ([1]; 12 hours post-editing, FIG. 16F) | CDK2 expression [2] | CDKN2A expression [3] | increase in the percentage of GFP+ cells compared to standard [4] | CD90+ fraction in culture composition ([5]; 96 hours, FIG. 14E) | culture composition ([5]; FIG. 10C) | APOBEC3H expression [6] | engraftment of treated cells compared to standard protocol [7] | expansion of treated HSPC ([8]; AAVS1 edited cells, FIG. 3D) | cell growth compared to standard RNP+AAV6 ([8]; days post-editing, FIG. 14B) | reduction of the amplitude of p21 (CDKN1A) activation compared to RNP+AAV6 ([1]; 24 hours post-editing, FIG. 16E) | number of dominant clones in haematopoietic organs, vs standard [9] | relative composition of the hematopoietic populations ([5]; 3 days post editing, vs untreated controls, FIG. 3E) | amplitude of the p53-dependent transcriptional response (downstream target genes) [10]
B1 | about 2 fold | significantly up-regulated | significantly up-regulated | 1.5 fold | significant skewing | without any skew in the culture composition | significantly down-regulated |  |  |  |  |  |  | 
B2 |  | remained always at basal level | still remained at basal level |  |  |  | significantly down-regulated | 5-6 fold | higher expansion | about 2 fold | about 3 fold | 6.5 fold | no change in relative composition | reduce the amplitude of the p53-dependent transcriptional response
